Assay [1] concerns the target PD-1 on Jurkat/PD-1细胞(Promega) (UniProt Q15116). Description: cell-based or functional assay.
For assay [2], the target named is 人PD-1蛋白(北京百普赛斯，货号PD1-H5221) (human) (UniProt Q15116). Description: binding ELISA on coated PD-1 protein.
For assay [3] the target is unchanged. Description: binding ELISA, human PD-1 protein coated at 1 μg/mL, anti-human IgG (Fc)-HRP. For orientation: ELISA stands for enzyme-linked immunosorbent assay.
The target is the same in assay [4]. Description: binding ELISA on coated PD-1 protein. The source holds these as a separate data set.
Assay [5] has the same target. Description: binding ELISA on coated PD-1 protein. This is another data set of the same source.
For assay [6], the target named is PD-1 on Jurkat/PD-1细胞(Promega) (UniProt Q15116). Description: cell-based or functional assay. This is another data set of the same source.
Assay [7] concerns the target 人PD-1蛋白(北京百普赛斯，货号PD1-H5221) (human) (UniProt Q15116). Description: binding ELISA on coated PD-1 protein. The source holds these as a separate data set.
Assay [8] deals with PD-1 on Jurkat/PD-1细胞(Promega) (UniProt Q15116). Description: cell-based or functional assay. The source holds these as a separate data set.

Read-outs that look alike come from different tables or passages of the source.

B1: PD-1VHH抗体克隆huVHH3-3 (VHH, part only; not given: format as tested, part only)
VHH, part: EVQLVESGGGLVQPGGSLRLSCAASGRTSSMYAMGWFRQAPGNEREFVAGIGWENNTPYYARSVEGRFTISRDNVKNTVFLQMNRLRAEDTAVYYCAAQIGISGTLGDYWGQGTQVTVSS
Broadly, the EC50 is the concentration that produces a half-maximal response. Take B1: the figures for the EC50, PD-1报告基因法 in assay [1], in assay [6] and in assay [8] were 0.4 µg/mL, 0.2 µg/mL and 0.5 µg/mL, respectively. For the same molecule, the EC50 came out at 0.0073 µg/mL in assay [2]; 0.0202 µg/mL in assay [3]; 0.0122 µg/mL in assay [4]; 0.0053 µg/mL in assay [5]; 0.0164 µg/mL in assay [7]. Also, in assay [6], the EC50, 报告基因法 (CHO/PD-L1 + Jurkat/PD-1, One-Glo luminescence) was 0.2 to 0.5 µg/mL.

The values are drawn from CN115558029A.
